Data taken from article PMC5492076, “β-Cyanoalanine Synthases and Their Possible Role in Pierid Host Plant Adaptation” (Insects, 2017).

Substrate: N[C@@H](CS)C(=O)O
Experiment: colorimetric sulfide formation, Michaelis-Menten fit
Assay type: biochemical, Aporia crataegi
Conditions: 6 mM KCN, 20 µM pyridoxal-5'-phosphate, Tris-HCl pH 8.5, 31 °C, 10 min
From the text: colorimetric sulfide formation, Michaelis-Menten fit on AcrBSAS3

B1: AcrBSAS3 (Aporia crataegi) (protein)
chain: MTNAISVSNEIKASALELIGNTPLLALDRLHPGPGRILVKCEFMNPGGSLKCRSSLHMIQKARERGELKPGGDVVEVTSGNQGCGLGVVCSVLGHPLTVTMSKGNSIQRALHMEALGAKCIRYPLVKGTYGNVTFADVEPALEGAMKMSEETGAFFVKQMANPDNIEAHYETTGPEIWRQSGHRVDAFVTAVGTSGTFTGVSKYLKEQNPEIQCFVVEPEGSQPLKGCPITKPLHMLQGASYGVVPDLFNPDLMEDSISVTDEESVHYKDLLGTKEGLFVGYTSGANVAAAVKLLNSGKLPKDAWVVTILSDTGLKYTPVPDNLIE
notes: N-terminal Strep-tag, E. coli BL21(DE3) pLysS; Strep-Tactin purified
  Km: 1.31 (±0.08) mM
  Vmax: 1.12 µmol/min/mg
